Experimental data as given in article PMC5689005.

B1: HP1 (A-rich stem-loop) (structured_RNA)
RNA: GGCGACGGUGUAAAAAUCUCGCC
B2: HP2 (structured_RNA)
RNA: GGGCUUUAAAGUGAAAGCCC

Tests used:
[1] = biological target: hLysRSΔN65 (human lysyl-tRNA synthetase, N-terminally truncated) (human, UniProt Q15046 66-597, del1-65); experiment: fluorescence anisotropy
[2] = biological target: hLysRS (full-length human lysyl-tRNA synthetase) (human, UniProt Q15046 1-597); experiment: fluorescence anisotropy
Chain of hLysRS (full-length human lysyl-tRNA synthetase) (Q15046 whole entry): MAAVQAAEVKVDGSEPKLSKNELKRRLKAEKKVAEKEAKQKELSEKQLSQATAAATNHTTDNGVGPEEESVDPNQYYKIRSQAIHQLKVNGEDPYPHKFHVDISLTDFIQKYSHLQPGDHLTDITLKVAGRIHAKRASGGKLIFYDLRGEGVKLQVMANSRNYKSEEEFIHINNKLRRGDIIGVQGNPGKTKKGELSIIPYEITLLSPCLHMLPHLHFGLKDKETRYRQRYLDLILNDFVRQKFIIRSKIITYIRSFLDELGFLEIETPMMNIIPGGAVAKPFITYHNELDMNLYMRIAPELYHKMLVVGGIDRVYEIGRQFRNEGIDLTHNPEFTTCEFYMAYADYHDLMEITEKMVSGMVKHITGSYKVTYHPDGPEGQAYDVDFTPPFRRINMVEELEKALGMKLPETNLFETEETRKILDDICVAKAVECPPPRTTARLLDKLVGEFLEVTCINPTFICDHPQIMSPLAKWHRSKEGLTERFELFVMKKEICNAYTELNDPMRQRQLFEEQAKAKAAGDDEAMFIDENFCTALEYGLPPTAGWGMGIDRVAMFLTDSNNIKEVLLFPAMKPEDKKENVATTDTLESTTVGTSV

Chain of hLysRSΔN65 (human lysyl-tRNA synthetase, N-terminally truncated) (Q15046 66-597, stated change not applied): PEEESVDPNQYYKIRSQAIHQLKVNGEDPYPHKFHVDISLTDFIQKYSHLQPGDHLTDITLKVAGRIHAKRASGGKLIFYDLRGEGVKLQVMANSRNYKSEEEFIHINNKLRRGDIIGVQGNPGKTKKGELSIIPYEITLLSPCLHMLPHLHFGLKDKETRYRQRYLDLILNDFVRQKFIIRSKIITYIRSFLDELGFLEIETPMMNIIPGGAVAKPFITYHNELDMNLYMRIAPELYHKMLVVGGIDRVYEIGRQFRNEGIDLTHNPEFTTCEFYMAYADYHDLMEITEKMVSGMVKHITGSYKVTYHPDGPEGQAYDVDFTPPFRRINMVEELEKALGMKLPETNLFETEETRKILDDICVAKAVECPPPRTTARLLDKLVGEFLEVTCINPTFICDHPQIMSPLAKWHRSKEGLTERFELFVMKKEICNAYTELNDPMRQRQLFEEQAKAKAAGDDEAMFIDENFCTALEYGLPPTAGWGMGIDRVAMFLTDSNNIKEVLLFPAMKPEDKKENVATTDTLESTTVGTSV

Row | Binder | binding result [1] | binding result [2]
1 | B1 | no binding | no binding
2 | B2 | no binding | –
